{
  "source": "paper PMC11635053",
  "about": "“Development of a homotrimeric PSMA radioligand based on the NOTI chelating platform” (EJNMMI Radiopharmacy and Chemistry, 2024)",
  "key": {"PSMA": {"molecular_target": "T1, PSMA (Homo sapiens, UniProt Q04609)", "T1 construct": "host or cells: LNCaP", "T1 sequence (Q04609 whole entry)": "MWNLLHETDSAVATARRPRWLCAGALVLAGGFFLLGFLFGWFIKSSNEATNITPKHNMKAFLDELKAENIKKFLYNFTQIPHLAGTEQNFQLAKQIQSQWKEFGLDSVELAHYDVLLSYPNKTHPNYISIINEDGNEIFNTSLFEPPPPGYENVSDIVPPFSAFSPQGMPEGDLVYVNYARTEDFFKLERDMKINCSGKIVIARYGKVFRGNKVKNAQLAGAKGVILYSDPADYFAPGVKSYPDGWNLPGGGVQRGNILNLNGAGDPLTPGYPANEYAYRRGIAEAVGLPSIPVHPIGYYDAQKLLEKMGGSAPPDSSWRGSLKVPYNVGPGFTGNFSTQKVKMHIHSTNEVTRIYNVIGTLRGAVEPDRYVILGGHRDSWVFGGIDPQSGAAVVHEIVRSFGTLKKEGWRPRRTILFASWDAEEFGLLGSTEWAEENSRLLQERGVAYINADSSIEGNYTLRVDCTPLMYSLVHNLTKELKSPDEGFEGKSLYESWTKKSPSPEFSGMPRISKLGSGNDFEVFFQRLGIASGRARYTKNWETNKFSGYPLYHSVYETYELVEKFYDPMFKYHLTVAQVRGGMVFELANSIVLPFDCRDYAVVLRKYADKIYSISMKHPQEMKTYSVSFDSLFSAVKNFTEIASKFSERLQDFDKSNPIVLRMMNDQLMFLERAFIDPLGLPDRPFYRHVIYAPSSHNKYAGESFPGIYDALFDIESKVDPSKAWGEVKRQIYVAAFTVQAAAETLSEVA", "assay": "Competitive binding assay in LNCaP cells with [177Lu]Lu-PSMA-617 as radioligand", "details": "LNCaP cells, radioligand [177Lu]Lu-PSMA-617, 2 h at r.t.; read-out: IC50 (half maximum competitive inhibitory concentration)", "description": "In order to establish a structure–activity relationship, the binding affinity of the metal-free and ^natGa-complexes of the conjugates 7, 8, and 9 were determined in the PSMA-positive human prostate cancer cell line LNCaP by a competitive binding assay as previously reported using [^177Lu]Lu-PSMA-617 as the radioligand (Stemler et al. [2021]). The conjugate Glu-CO-Lys-Ahx-HBED-CC (PSMA-11) was included as the control.\nThe competitive binding assay was carried out using a MultiScreen®HTS Vacuum Manifold system (Merck, Germany) with 96-well filter plates. Serial dilutions of the metal-free conjugates and corresponding ^natGa complexes were prepared to obtain 7 final concentrations ranging from 0 to 1000 nM for each compound. PSMA-11 was also tested as control. Experiments were performed twice in triplicate for each compound. Freshly prepared ^177Lu-labeled PSMA-617 was used as the radioligand. A volume of 1 μL of [^177Lu]Lu-PSMA-617 stock solution (2.83 μM) was added into each tube of the dilution series (radioligand concentration 3.14 nM). For the experiment, 10^5 LNCaP cells were seeded into each well. The final volume of each well was 150 μL (100 μL cells in medium + 50 μL inhibitor in PBS). The experiment was incubated for 2 h at r.t. in a plate shaker. Then, the supernatants were removed by vacuum. Wells were furthermore washed out with ice-cold PBS (3 × 200 μL, pH 7.4). The filters were punched into tubes for the subsequent quantification of the activity in a Gamma-counter. A nonlinear regression algorithm was applied by the software GraphPad Prism to determine the specific inhibitory concentrations of 50% for the tested radiotracers."}, "[1]": {"system": "patient with metastatic prostate cancer", "assay": "Clinical PET/CT imaging", "details": "human, in vivo", "description": "PET/CT was performed approximately 1, 2, and 3 h after intravenous injection of 107 MBq of [^68Ga]Ga-9 and 1 h after injection of 113 MBq [^68Ga]Ga-PSMA-11 in a patient with metastatic prostate cancer. Whole body imaging extending from vertex to mid-femur was performed in 3D-ToF mode on a Biograph mCT 40 scanner (Siemens Medical Solutions, Knoxville, TN, USA) with an extended field of view of 21.4 cm. PET acquisition time was 3 min bed position^−1. Low-dose CT acquisition was performed for attenuation correction and anatomical localization using an X-ray tube voltage of 120 kV and a modulation of the tube current (maximal tube current: 30 mA; CARE Dose 4D software Siemens Healthineers, Erlangen, Germany) followed by reconstruction with a soft tissue reconstruction kernel (Bf37) to a slice thickness of 5 mm (increment 2–4 mm). PET emission data were additionally corrected for decay, randoms and scatter and reconstructed applying an iterative 3D ordered subset expectation maximization algorithm (3 iterations; 21 subsets) withGaussian filtering to transaxial resolution of 5 mm at full width at half maximum. The matrix size was 200 × 200 mm and the reconstructed pixel size was 5.0 mm."}},
  "data": [
    {"compound": "O=C(O)CC[C@H](NC(=O)N[C@@H](CCCCNC(=O)[C@H](Cc1ccc2ccccc2c1)NC(=O)[C@H]1CC[C@H](CNC(=O)CCCCn2ccnc2CN2CCN(Cc3nccn3CCCCC(=O)NC[C@H]3CC[C@H](C(=O)N[C@@H](Cc4ccc5ccccc5c4)C(=O)NCCCC[C@H](NC(=O)N[C@@H](CCC(=O)O)C(=O)O)C(=O)O)CC3)CCN(Cc3nccn3CCCCC(=O)NC[C@H]3CC[C@H](C(=O)N[C@@H](Cc4ccc5ccccc5c4)C(=O)NCCCC[C@H](NC(=O)N[C@@H](CCC(=O)O)C(=O)O)C(=O)O)CC3)CC2)CC1)C(=O)O)C(=O)O", "note": "[^nat/68Ga-9, metal not drawn]", "values": [
      {"measurement": "IC50", "setting": "PSMA", "result": 4.8, "unit": "nM"},
      {"measurement": "SUVpeak in the parotid gland", "setting": "[1]", "result": 26.7},
      {"measurement": "SUVpeak in the submandibular gland", "setting": "[1]", "result": 23.5},
      {"measurement": "SUVpeak kidneys", "setting": "[1]", "result": 33.1},
      {"measurement": "SUVpeak, first target lesion", "setting": "[1]", "result": 23.7},
      {"measurement": "SUVpeak, second target lesion", "setting": "[1]", "result": 12.8},
      {"measurement": "SUVpeak, third target lesion", "setting": "[1]", "result": 10.3}
    ]}
  ]
}
